{"source": "paper doi:10.1101/2022.12.13.520362", "about": "(bioRxiv, 2022)", "key": {"[1]": {"biological_target": "empty procapsid shells of bacteriophage P22 (WT coat protein) (bacteriophage P22, UniProt P26747 1-430)", "assay": "co-sedimentation"}, "[2]": {"biological_target": "bacteriophage P22 coat protein monomers (WT) (bacteriophage P22, UniProt P26747 1-430)", "assay": "weak affinity chromatography"}}, "data": [{"binder": "his6-tagged WT scaffolding protein of bacteriophage P22 (gp8) (natural protein, UniProt P26748 1-303, looked up) MEPTTEIQATEDLTLSGDHAAASADSLVVDNANDNAGQEEGFEIVLKDDETAPKQDPAKNAEFARRRIERKRQRELEQQMEAVKRGELPESLRVNPDLPPQPDINAYLSEEGLAKYDYDNSRALAAFNAANTEWLMKAQDARSNAVAEQGRKTQEFTQQSAQYVEAARKHYDAAEKLNIPDYQEKEDAFMQLVPPAVGADIMRLFPEKSAALMYHLGANPEKARQLLAMDGQSALIELTRLSERLTLKPRGKQISSAPPADQPITGDVSAANKDAIRKQMDAAASKGDVETYRKLKAKLKGIR", "values": [{"measurement": "binding result", "setting": "[1]", "value": "binds"}, {"measurement": "binding result", "setting": "[2]", "value": "binds"}]}, {"binder": "his6-tagged L245C scaffolding protein of bacteriophage P22 (natural protein, UniProt P26748 1-303, looked up) MEPTTEIQATEDLTLSGDHAAASADSLVVDNANDNAGQEEGFEIVLKDDETAPKQDPAKNAEFARRRIERKRQRELEQQMEAVKRGELPESLRVNPDLPPQPDINAYLSEEGLAKYDYDNSRALAAFNAANTEWLMKAQDARSNAVAEQGRKTQEFTQQSAQYVEAARKHYDAAEKLNIPDYQEKEDAFMQLVPPAVGADIMRLFPEKSAALMYHLGANPEKARQLLAMDGQSALIELTRLSERCTLKPRGKQISSAPPADQPITGDVSAANKDAIRKQMDAAASKGDVETYRKLKAKLKGIR", "values": [{"measurement": "binding result", "setting": "[1]", "value": "binds"}]}]}
